Source: the Immune Epitope Database (IEDB)

Assays:
[1] = target: HLA-B*15:01; experiment: IEDB peptide-MHC binding, purified MHC/competitive/radioactivity; filed as Kd, often an IC50 or EC50 that approximates it; ≥ and ≤ were set here for values at or beyond the usual limits of such assays
[2] = target: HLA-B*40:01; experiment: as above
[3] = target: HLA-A*02:01; experiment: as above
[4] = target: HLA-B*08:01; experiment: as above
[5] = target: HLA-B*35:01; experiment: as above
[6] = target: HLA-B*07:02; experiment: as above
[7] = target: HLA-A*02:06; experiment: as above
[8] = target: HLA-A*01:01; experiment: as above
[9] = target: HLA-A*68:02; experiment: as above
[10] = target: HLA-A*23:01; experiment: as above; details: source organism: Dengue virus 3 Martinique/1243/1999
[11] = target: HLA-B*53:01; experiment: as above
[12] = target: HLA-B*51:01; experiment: as above
[13] = target: HLA-A*02:03; experiment: as above
[14] = target: HLA-A*02:02; experiment: as above
[15] = target: HLA-A*02:01; experiment: IEDB peptide-MHC binding, purified MHC/competitive/fluorescence; filed as Kd, often an IC50 or EC50 that approximates it; ≥ and ≤ were set here for values at or beyond the usual limits of such assays
[16] = target: HLA-A*03:01; experiment: IEDB peptide-MHC binding, purified MHC/direct/fluorescence; filed as Kd, often an IC50 or EC50 that approximates it; ≥ and ≤ were set here for values at or beyond the usual limits of such assays; details: source organism: SARS-CoV1
[17] = target: HLA-A*69:01; experiment: as above; details: source organism: SARS-CoV1
[18] = target: HLA-B*15:01; experiment: as above; details: source organism: SARS-CoV1
[19] = target: HLA-A*32:01; experiment: IEDB peptide-MHC binding, purified MHC/competitive/radioactivity; filed as Kd, often an IC50 or EC50 that approximates it; ≥ and ≤ were set here for values at or beyond the usual limits of such assays; details: source organism: Vaccinia virus WR
[20] = target: HLA-B*15:01; experiment: IEDB peptide-MHC binding, purified MHC/competitive/fluorescence; filed as Kd, often an IC50 or EC50 that approximates it; ≥ and ≤ were set here for values at or beyond the usual limits of such assays
[21] = target: HLA-A*03:01; experiment: IEDB peptide-MHC binding, purified MHC/competitive/radioactivity; filed as Kd, often an IC50 or EC50 that approximates it; ≥ and ≤ were set here for values at or beyond the usual limits of such assays; details: source organism: Dengue virus 4 Philippines/H241/1956
[22] = target: HLA-A*30:02; experiment: as above
[23] = target: HLA-A*26:01; experiment: as above; details: source organism: Dengue virus 1 Brazil/97-11/1997
[24] = source organism: Vaccinia virus WR
[25] = source organism: Dengue virus 4 Philippines/H241/1956
[26] = source organism: Dengue virus 1 Brazil/97-11/1997
[27] = source organism: Dengue virus 2 Jamaica/1409/1983
[28] = source organism: Dengue virus 3 Martinique/1243/1999
[29] = source organism: Vaccinia virus Copenhagen
[30] = source organism: SARS coronavirus Tor2

LINNGKCTF
Kd [1, 24]: 61.9 nM

VEETNMITL
Kd ([2]; source organism: Dengue virus 4 Dominica/814669/1981): 27.1 nM

FLETDAGRV
Kd ([3]; source organism: Variola virus): 100 nM

AQGKPTLDF
Kd [1, 25]: 3.09 nM

LAKRFSKGLL
Kd [4, 26]: 2530 nM

RSIRKFNTM
Kd [4, 24]: 16.9 nM
Kd [1, 24]: 4.38 nM

RDALDNLAVL
Kd [4, 27]: 1160 nM

TPQPKPGTRM
Kd [5, 25]: 177 nM
Kd [6, 25]: 39.9 nM

MTTEDMLTV
Kd [7, 28]: 2.85 nM
Kd [8, 28]: 7380 nM
Kd [9, 28]: 19.1 nM

WLGARYLEF
Kd [4, 28]: 2.26 nM
Kd [1, 28]: 158 nM
Kd [10]: 82.7 nM

LIIICCVSG
Kd [1, 29]: 403 nM

LPVCQSSSM
Kd [11, 28]: 1010 nM
Kd [12, 28]: 2740 nM
Kd [5, 28]: 12.6 nM
Kd [6, 28]: 10.5 nM

QLQPFLQPQL
Kd ([3]; source organism: Triticum aestivum): ≥ 10000 nM

LEFEALGFLN
Kd ([2]; source organism: Murray valley encephalitis virus (strain MVE-1-51)): 144 nM

ETWNRQDLLV
Kd [9, 26]: 17 nM

FIASKGVKLV
Kd ([3]; source organism: Homo sapiens): 37 nM

SEIKRGLFF
Kd [1, 24]: 323 nM

ALCKVTVPT
Kd [7, 24]: 210 nM
Kd [13, 24]: 130 nM
Kd [14, 24]: 110 nM
Kd [3, 24]: 31 nM

FQNWGIESI
Kd ([15]; source organism: Influenza A virus (A/Wilson-Smith/1933(H1N1))): 2.3 nM

TTAEEAAGI
Kd ([3]; source organism: Homo sapiens): 4170 nM

LIIMDEAHF
Kd [1, 27]: 19 nM

YVNAILYQI
Kd [7, 24]: 1980 nM
Kd [13, 24]: 9940 nM
Kd [9, 24]: 1860 nM
Kd [14, 24]: 2050 nM
Kd [3, 24]: 1430 nM

NTTANISLTA
Kd [9, 26]: 44.6 nM

LEYTIVITPH
Kd [2, 27]: 2470 nM

LNINKNGSF
Kd [1, 24]: 479 nM

LLALQQLEV
Kd [16]: 2020 nM
Kd [17]: 242 nM
Kd [18]: 3790 nM
Kd [7, 30]: 41.9 nM
Kd [13, 30]: 0.295 nM
Kd [14, 30]: 0.138 nM
Kd ([15]; source organism: SARS-CoV1): 2.7 nM

YVFFEIIHF
Kd [1, 29]: 0.692 nM

AGRRSVSGDL
Kd [4, 26]: 9260 nM

RMFHFFEHE
Kd [1, 24]: 66.9 nM

MPVTVASAAQ
Kd [12, 26]: ≥ 69600 nM
Kd [5, 26]: 391 nM
Kd [6, 26]: 446 nM

SAYTALFSGV
Kd [7, 28]: 1.16 nM
Kd [13, 28]: 7.14 nM
Kd [9, 28]: 9.19 nM

VEAGRTLRVL
Kd ([2]; source organism: Dengue virus 2 Peru/IQT2913/1996): 12.1 nM

NQYLLTMFF
Kd [1, 24]: 1.21 nM

LPQHLTLRAQ
Kd [12, 26]: ≥ 31700 nM
Kd [5, 26]: 520 nM
Kd [6, 26]: 265 nM

QNHKKSAHF
Kd [1, 24]: 412 nM

KRKLRTLIL
Kd [4, 26]: 462 nM

MECSPRTGL
Kd [2, 27]: 153 nM

ELVENGKKV
Kd ([7]; source organism: Homo sapiens): 9570 nM
Kd ([9]; source organism: Homo sapiens): 6350 nM

ILIEGVFFA
Kd ([3]; source organism: Human alphaherpesvirus 2): 0.16 nM

SMPDFDLHL
Kd ([3]; source organism: Homo sapiens): 5.2 nM

RRKRSVTMLL
Kd [4, 26]: 3650 nM

RVIDPRRCM
Kd [6, 27]: 1150 nM

ALRFFLQRL
Kd [4, 24]: 1990 nM

QETWNRQDLL
Kd [2, 26]: 9.21 nM

EIFKHLVFF
Kd [1, 24]: 12.2 nM

FIAFLRFLAI
Kd [11, 26]: 1320 nM
Kd [7, 26]: 14.9 nM
Kd [9, 26]: 417 nM

ELESQISEL
Kd ([9]; source organism: Homo sapiens): ≥ 60000 nM
Kd ([3]; source organism: Homo sapiens): ≥ 78100 nM

STANVSLAAI
Kd [8, 28]: ≥ 47800 nM
Kd [9, 28]: 2.12 nM

VIEEVMNIV
Kd ([3]; source organism: Lassa virus GA391): 6250 nM

SLNALFVML
Kd [4, 24]: 1260 nM
Kd [19]: 1230 nM

FSPRLCRPF
Kd ([20]; source organism: Escherichia coli 536): 325 nM

LAGPMVAGGL
Kd [4, 25]: 7750 nM

TVIDLEPISY
Kd [8, 25]: 8390 nM
Kd [1, 25]: 1.36 nM

ALLAGFMAY
Kd [21]: 1.67 nM
Kd [22, 25]: 80 nM
Kd [1, 25]: 1.14 nM

RLNALGKSEF
Kd [1, 27]: 17.2 nM

DTAWDFGSI
Kd [9, 26]: 3.09 nM
Kd [23]: 562 nM

SNAAIGAVF
Kd [1, 26]: 77.8 nM

LLKFRVESC
Kd [4, 29]: 74.4 nM

MAMFYAHAL
Kd [4, 24]: 1.15 nM
Kd [19]: 12500 nM

FCSHHFHEL
Kd [4, 28]: 135 nM

FQTLMHSPF
Kd ([20]; source organism: Bacillus cereus G9241): 23.1 nM

NMDPLNDNI
Kd ([9]; source organism: Homo sapiens): ≥ 85700 nM
Kd ([3]; source organism: Homo sapiens): 1930 nM

LLQEENRQKL
Kd ([9]; source organism: Homo sapiens): ≥ 60000 nM

LVEKVLKIL
Kd ([15]; source organism: Vaccinia virus): 992 nM

RKSGKKVIQL
Kd [4, 25]: 301 nM

MTDDIGMGV
Kd [7, 27]: 7.05 nM
Kd [9, 27]: 5.13 nM

STMTLLCLI
Kd [9, 25]: 3.75 nM

ANISTILYF
Kd [1, 24]: 128 nM

TQWCSRSVY
Kd ([20]; source organism: Escherichia coli 101-1): 84.3 nM

AINVEKIEL
Kd [15, 24]: ≥ 20000 nM

MTATPPGTA
Kd [9, 28]: 35.2 nM

MLVTPSMAM
Kd [23]: 6420 nM
Kd [5, 26]: 442 nM
Kd [1, 26]: 3.06 nM

MVSAGSGEV
Kd [13, 26]: 94.6 nM
Kd [9, 26]: 29.6 nM

AETQHGTVLV
Kd [2, 26]: 98.4 nM

SPYVKFIYF
Kd [4, 24]: 1780 nM

LSEKWFTHA
Kd [1, 24]: 19100 nM

IINKRKKTSL
Kd [4, 28]: 83.9 nM

ETQHGTTVV
Kd [9, 25]: 8.6 nM

YMGEDGCWY
Kd [8, 28]: 177 nM
Kd [22, 28]: ≥ 36900 nM
Kd [1, 28]: 14.8 nM
